Data on 2 molecules can be found in patent US20090124555A1, “USE OF HISTOGRANIN AND HISTOGRANIN-LIKE COMPOUNDS AS INHIBITORS OF P2X7 RECEPTOR FUNCTION AND AS ANTI-ARTHRITIC AGENTS” (priority 2005, published 2009).

Entries after “also recorded” stand apart in the source; their conditions may differ.

The target in assay [1] is T1, P2X7 receptor (Mus musculus, UniProt Q9Z1M0).
T1 construct: from tissue; host or cells: living mice; peritoneal cavity (lavage fluid analysed)
T1 sequence (Q9Z1M0 1-595): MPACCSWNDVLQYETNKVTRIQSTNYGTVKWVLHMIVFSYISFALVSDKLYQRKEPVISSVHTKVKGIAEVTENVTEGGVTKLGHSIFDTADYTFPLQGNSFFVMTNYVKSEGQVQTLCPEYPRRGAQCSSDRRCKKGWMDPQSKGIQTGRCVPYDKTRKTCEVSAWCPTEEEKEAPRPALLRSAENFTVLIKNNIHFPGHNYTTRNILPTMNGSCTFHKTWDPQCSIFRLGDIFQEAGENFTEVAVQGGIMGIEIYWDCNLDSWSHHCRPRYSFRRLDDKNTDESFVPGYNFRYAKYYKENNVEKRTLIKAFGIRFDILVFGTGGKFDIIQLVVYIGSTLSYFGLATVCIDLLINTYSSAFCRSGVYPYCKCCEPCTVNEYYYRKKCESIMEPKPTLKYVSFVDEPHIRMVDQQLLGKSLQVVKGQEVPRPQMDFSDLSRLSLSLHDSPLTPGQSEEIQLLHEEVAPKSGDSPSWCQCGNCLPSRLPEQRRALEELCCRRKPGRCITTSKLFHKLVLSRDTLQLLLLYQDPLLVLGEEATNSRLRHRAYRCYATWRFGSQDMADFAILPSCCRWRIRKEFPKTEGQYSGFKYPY
Put plainly: ATP-induced extracellular release of IL-1.beta, IL-1.alpha and IL-6 in vivo (peritoneal lavage of LPS-primed mice). Conditions: 0.1 mg and 0.3 mg i.p. 15 min before ATP, FIG. 6B. As to the method:
Groups of mice were injected intraperitoneally (i.p.) with 50 μg of LPS. Two hours after this LPS injection, mice were injected i.p. with either PBS or ATP (5 mM, adjusted to pH 7), or with HN compounds (0.1 mg and 0.3 mg) 15 minutes before ATP injection. Mice were sacrificed 30 minutes (IL-1.beta and IL-1.alpha) or 120 minutes (IL-6) after the ATP or PBS injection and peritoneal cavities were lavaged each with 3 ml PBS. Samples of peritoneal lavages were centrifuged, cell-free supernatants were collected and tested for the presence of IL-1.beta, IL-1.alpha and IL-6 using ELISA (R&D Systems, Minneapolis, Minn., and Biosource, Camarillo, Calif., respectively).

In assay [2] the test system is DBA/1 mice with collagen-induced arthritis. The assay can be described thus: Collagen-induced arthritis (CIA) in mice, clinical and histologic scoring. The conditions noted are these: 0.3 mg i.p. daily before LPS and onset. Type of assay: in vivo.
Description: For induction of arthritis, DBA/1 mice (The Jackson Laboratory, Bar Harbor, Me.) were immunized intradermally at the base of the tail with bovine type II collagen (100 μg; Chondrex, Richmond, Wash.) emulsified in Freund's complete adjuvant (Chondrex, Richmond, Wash.). On day 21, the animals were boosted with an intradermal injection of 100 μg type II collagen. To synchronize the onset of arthritis, mice were subsequently injected i.p. with LPS (50 μg) (Yoshino et al. (2000) J. Immunol. 163:3417-3422).
To test the subject of the present invention, mice were divided in various groups: mice injected with saline (negative control), mice injected with collagen and LPS (positive control), mice injected with collagen and treated i.p. daily with HN compound starting 2 days before i.p. injection of LPS and onset of arthritis, and mice injected with collagen and LPS, and treated i.p. daily with RN compound after the onset of arthritis as monitored by the presence of a positive clinical score index as described below.
The incidence of arthritis was monitored daily by macroscopic clinical scoring on a 0-3 scale where 0=normal: 1=slight swelling and erythema. […] Limb swelling was also measured with calipers (Wallace et al. (1999) J. Immunol. 162:5547-5555). […] Cartilage destruction was evaluated as the extent of loss of glycosaminoglycan matrix, death of chondrocytes, thinning and destruction. […]
Assay [3] deals with T2, P2X7 receptor (Rattus norvegicus, UniProt Q64663).
T2 construct: Alveolar macrophages (AM) were recovered from normal rats by bronchoalveolar lavage; endogenous in cells; host or cells: primary alveolar macrophages from male Wistar rats (bronchoalveolar lavage)
T2 sequence (Q64663 1-595): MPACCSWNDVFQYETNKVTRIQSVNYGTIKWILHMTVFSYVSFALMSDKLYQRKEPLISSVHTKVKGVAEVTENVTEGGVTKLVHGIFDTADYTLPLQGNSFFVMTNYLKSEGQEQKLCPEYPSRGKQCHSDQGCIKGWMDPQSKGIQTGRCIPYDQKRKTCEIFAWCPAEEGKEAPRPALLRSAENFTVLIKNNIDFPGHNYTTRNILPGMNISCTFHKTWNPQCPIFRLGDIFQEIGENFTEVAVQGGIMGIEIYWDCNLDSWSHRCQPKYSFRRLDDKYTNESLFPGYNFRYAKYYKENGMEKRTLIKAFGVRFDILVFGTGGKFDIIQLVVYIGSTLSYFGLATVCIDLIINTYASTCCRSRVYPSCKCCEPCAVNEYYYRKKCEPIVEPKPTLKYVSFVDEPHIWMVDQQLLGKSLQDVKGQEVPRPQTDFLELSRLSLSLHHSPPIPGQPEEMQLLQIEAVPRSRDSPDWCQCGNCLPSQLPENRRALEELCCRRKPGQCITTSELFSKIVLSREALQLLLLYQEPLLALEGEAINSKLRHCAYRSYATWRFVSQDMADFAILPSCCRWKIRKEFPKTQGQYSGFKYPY
Put plainly: ATP-induced membrane permeabilization and pore formation (ethidium bromide uptake) in alveolar macrophages. The conditions noted are these: rat alveolar macrophages, FIG. 1A. Type of assay: cell-based. As to the method:
Alveolar macrophages (AM) were recovered from normal rats by bronchoalveolar lavage (BAL) as described previously (Lemaire (1991) Am. J. Pathol. 138:487-495). The lungs were lavaged with 7 ml-aliquots of sterile phosphate buffered saline (pH 7.4; Wisent, St. Bruno, QC), and BAL cells were obtained by centrifugation at 200×g at 4° C. for 5 minutes. The cells were resuspended in RPMI 1640 medium (Wisent, St-Bruno, QC) supplemented with 0.5% dialysed fetal bovine serum (Wisent. St-Bruno, QC), 0.005% gentamycin (Schering Canada Inc. Pointe Claire. QC) and 0.8% HEPES (Sigma Chemical Co., St-Louis, MO) which will henceforth be referred to as complete culture medium (CM).
Freshly isolated AM (1×10^5) were incubated in 200 μl complete medium in 96 wells tissue culture plates for 24 h. Following centrifugation, medium was replaced with saline solution containing 125 mM NaCl, 5 mM KCL, 1 mM MgSO4, 1 mM Na2HPO4, 5.5 mM glucose, 5 mM NaHCO3, 1 mM CaCl2 and 20 mM Hepes, pH 7.6. Ethidium bromide was added to a final concentration of 20 μM and AM were stimulated with ATP (5 mM, Sigma), 3′-O-(4-benzoylbenzoyl ATP (BzATP) (0.5 mM, Molecular Probes) or uridine 5′-triphosphate (UTP) (Sigma), at 37° C. for 5 minutes. In some experiments, cells were pre-treated with oxidized ATP (oATP, 0.1 mM, Sigma) for 2 h or Brilliant Blue G (BBG, 5×10^−9M, Sigma) for 5 minutes, or HN compounds for 5 minutes before ATP stimulation. After ATP stimulation, the plate was centrifuged (200×g, 1 minute), culture supernatants were replaced with fresh buffer and the fluorescence was analyzed using a Zeiss Axiovert S1100 TV inverted microscope equipped with a rhodamine filter and a 32× objective. Images were captured and analysed with the Northern Eclipse image analysis software. Data are expressed as percentage of cells that become permeabilized to ethidium bromide.

For assay [4], the target named is T1, P2X7 receptor. Put plainly: P2X7 receptor-stimulated IL-1.beta release ex vivo, blood-based IL-1.beta assay in CIA mice. The conditions noted are these: blood of i.p. treated CIA mice, FIG. 12C. As to the method: P2X7 receptor-stimulated IL-1 release ex vivo was performed with a blood-based IL-1.beta assay (Perregaux et al. (2000) J. Immunol. 165:4615-4623). Blood was collected from mice in each group in heparin-containing tubes. A total of 120 μl of blood was placed into an individual well of a 96-well plate and diluted with 120 μl RPMI 1640 medium containing 25 mM HEPES and 1% dialysed FBS. The diluted blood samples were incubated for 3 h in the presence and absence of LPS (1 μg/ml) at 37° C. in 5% CO2. ATP (5 mM, pH 7) was then added as a secretion stimulus and the mixtures were incubated at 37° C. for an additional 2 h. The 96-well plates were then centrifuged at 700×g for 10 min at 4° C., and the resulting plasma samples were collected and assayed for their IL-1.beta content by ELISA (R&D Systems, Minneapolis, Minn.).

`N=C(N)NCCC[C@H](Nc1ccccc1NC(=O)Cc1ccc(O)cc1)C(N)=O` [C-11, N-5-guanidinopentanamide-(2S)-yl-2-N (p-hydroxyphenylacetyl)phenylenediamine]: in assay [1], the “IL-1.beta in peritoneal lavage in response to ATP, various HN compounds” value is “inactive; also recorded: did not inhibit”. Besides, the arthritis score index entry in assay [2] (FIG. 12A) is given as “did not reduce”. In assay [2] (both knees, FIG. 12B), the histological score index entry is “did not reduce”.

For the molecule “cyclic (-Gly-Ala-Tyr-D-Arg-) (GAYR; HELM PEPTIDE1{G.A.Y.[dR]}$PEPTIDE1,PEPTIDE1,1:R1-4:R2$$$V2.0; SMILES C[C@@H]1NC(=O)CNC(=O)[C@@H](CCCNC(=N)N)NC(=O)[C@H](Cc2ccc(O)cc2)NC1=O) [C-9]”, the “inhibition of ATP-induced pore formation (ethidium bromide uptake)” value in assay [3] (ATP 5 mM, 5 min, compound 10^−9M) is given as “inhibited significantly”. The “inhibition of BzATP-induced pore formation” value in assay [3] (BzATP 0.5 mM) is recorded as “inhibit”. Besides, in assay [1], the “IL-1.beta in peritoneal lavage in response to ATP, various HN compounds” value is given as “reduced levels”. Further, in assay [4] (ATP without LPS ex vivo), the “ATP-induced IL-1.beta release in peripheral blood” value is reported as “inhibit”. The “LPS+ATP-induced IL-1.beta release in peripheral blood” value in assay [4] (LPS 3 h then ATP 2 h ex vivo) is reported as “inhibit”.
